Test results reported in patent US20120316071A1 (published 2012).

Experiments:
[1] = target: T1, rHuman CD44/Fc Chimera, CF (R&D Systems Cat#3660-CD) (human, UniProt P16070 21-220); experiment: Multispot ECL (MSD), antigen spotted on plate, Fab 3.3 nM; blank spot 359
T1 construct: Bought recombinant protein; Fc part of the bought chimera not given

[2] = target: T2, rHuman HGF R/c-MET/Fc Chimera, CF (R&D Systems Cat#358-MT/CF) (human, UniProt P08581 25-932); experiment: as above
T2 construct: Bought recombinant protein; also called HGF R/Fc; hepatocyte growth factor receptor; Fc part of the bought chimera not given

[3] = target: T3, rHuman EGF R/Fc Chimera, CF (R&D Systems Cat#344-ER) (human, UniProt P00533 25-645); experiment: as above
T3 construct: Bought recombinant protein; also called epidermal growth factor receptor; Fc part of the bought chimera not given

[4] = target: T4, rHuman ErbB2/Fc Chimera, CF (R&D Systems Cat#1129-ER) (human, UniProt P04626 23-652); experiment: as above
T4 construct: Bought recombinant protein; also called human epidermal growth factor 2 receptor; Fc part of the bought chimera not given

[5] = target: T5, rHuman Erythropoietin R/Fc Chimera, CF (R&D Systems Cat#963-ER) (human, UniProt P19235 25-250); experiment: as above
T5 construct: Bought recombinant protein; also called EPO R/Fc; Epo R; Fc part of the bought chimera not given
T5 sequence (looked up): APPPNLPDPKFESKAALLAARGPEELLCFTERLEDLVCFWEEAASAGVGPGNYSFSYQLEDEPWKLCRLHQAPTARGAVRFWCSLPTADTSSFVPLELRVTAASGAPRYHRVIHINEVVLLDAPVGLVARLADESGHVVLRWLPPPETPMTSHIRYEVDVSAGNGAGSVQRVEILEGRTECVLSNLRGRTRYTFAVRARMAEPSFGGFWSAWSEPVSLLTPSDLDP

[6] = target: T1, rHuman CD44/Fc Chimera, CF (R&D Systems …); experiment: Multispot ECL (MSD), antigen spotted on plate, Fab 52.5 nM; blank spot 467
[7] = target: T2, rHuman HGF R/c-MET/Fc Chimera, CF (R&D …); experiment: as above
[8] = target: T3, rHuman EGF R/Fc Chimera, CF (R&D …); experiment: as above
[9] = target: T4, rHuman ErbB2/Fc Chimera, CF (R&D …); experiment: as above
[10] = target: T5, rHuman Erythropoietin R/Fc Chimera, CF …; experiment: as above
[11] = target: T1, rHuman CD44/Fc Chimera, CF (R&D Systems …); experiment: Multispot ECL (MSD), antigen spotted on plate, Fab 210 nM; blank spot 833
[12] = target: T2, rHuman HGF R/c-MET/Fc Chimera, CF (R&D …); experiment: as above
[13] = target: T3, rHuman EGF R/Fc Chimera, CF (R&D …); experiment: as above
[14] = target: T4, rHuman ErbB2/Fc Chimera, CF (R&D …); experiment: as above
[15] = target: T5, rHuman Erythropoietin R/Fc Chimera, CF …; experiment: as above
[16] = target: T1, rHuman CD44/Fc Chimera, CF (R&D Systems …); experiment: Multispot ECL (MSD), antigen spotted on plate, Fab 13.1 nM; blank spot 376
[17] = target: T2, rHuman HGF R/c-MET/Fc Chimera, CF (R&D …); experiment: as above
[18] = target: T3, rHuman EGF R/Fc Chimera, CF (R&D …); experiment: as above
[19] = target: T4, rHuman ErbB2/Fc Chimera, CF (R&D …); experiment: as above
[20] = target: T5, rHuman Erythropoietin R/Fc Chimera, CF …; experiment: as above
[21] = target: T6, rHuman HGF R/c-MET/Fc Chimera, CF (R&D Systems Cat#358-MT/CF) (human, UniProt P08581 25-932); experiment: ECL multispot (MSD) assay, antigen spotted on plate, Fab at 0.1 µM
T6 construct: Bought recombinant protein; also called HGF R/Fc; hepatocyte growth factor receptor; Fc part of the bought chimera not given

[22] = target: T7, rHuman Notch-1/Fc Chimera, CF (R&D Systems Cat#3647-TK) (human, UniProt P46531 19-526); experiment: as above
T7 construct: Bought recombinant protein; Fc part of the bought chimera not given

[23] = target: T8, rHuman ErbB2/Fc Chimera, CF (R&D Systems Cat#1129-ER) (human, UniProt P04626 23-652); experiment: as above
T8 construct: Bought recombinant protein; also called human epidermal growth factor 2 receptor; Fc part of the bought chimera not given

[24] = target: T9, rHuman P-Cadherin/Fc Chimera, CF (R&D Systems Cat#861-PC) (human, UniProt P22223 108-654); experiment: as above
T9 construct: Bought recombinant protein; Fc part of the bought chimera not given

[25] = target: T10, rHuman CD44/Fc Chimera, CF (R&D Systems Cat#3660-CD) (human, UniProt P16070 21-220); experiment: as above
T10 construct: Bought recombinant protein; Fc part of the bought chimera not given

[26] = target: T11, Recombinant Human DLL4 (R&D Systems Cat#1506-D4/CF) (human, UniProt Q9NR61 27-524); experiment: as above
T11 construct: Bought recombinant protein; also called delta-like protein 4; rHuman DLL4

[27] = target: T12, rHuman EGF R/Fc Chimera, CF (R&D Systems Cat#344-ER) (human, UniProt P00533 25-645); experiment: as above
T12 construct: Bought recombinant protein; also called epidermal growth factor receptor; Fc part of the bought chimera not given

[28] = target: T13, rHuman Erythropoietin R/Fc Chimera, CF (R&D Systems Cat#963-ER) (human, UniProt P19235 25-250); experiment: as above
T13 construct: Bought recombinant protein; also called EPO R; EPO R/Fc; Fc part of the bought chimera not given
T13 sequence (looked up): T5 sequence (looked up)

[29] = target: T14, rHuman IGF-1 sR, CF (R&D Systems Cat#391-GR) (human, UniProt P08069 31-932); experiment: as above
T14 construct: Bought recombinant soluble receptor; also called insulin-like growth factor-1 soluble receptor

[30] = target: T6, rHuman HGF R/c-MET/Fc Chimera, CF (R&D …); experiment: ECL multispot (MSD) assay, antigen spotted on plate, Fab at 0.01 µM
[31] = target: T7, rHuman Notch-1/Fc Chimera, CF (R&D …); experiment: as above
[32] = target: T8, rHuman ErbB2/Fc Chimera, CF (R&D …); experiment: as above
[33] = target: T9, rHuman P-Cadherin/Fc Chimera, CF (R&D …); experiment: as above
[34] = target: T10, rHuman CD44/Fc Chimera, CF (R&D Systems …); experiment: as above
[35] = target: T11, Recombinant Human DLL4 (R&D Systems …); experiment: as above
[36] = target: T12, rHuman EGF R/Fc Chimera, CF (R&D …); experiment: as above
[37] = target: T13, rHuman Erythropoietin R/Fc Chimera, CF …; experiment: as above
[38] = target: T14, rHuman IGF-1 sR, CF (R&D Systems …); experiment: as above

B1: Fab VH4-31_IGHD2-15*01_IGHJ2*01 & V1-4_IGLJ4*01 (Fab, V domains shown)
VH: QVQLQESGPGLVKPSQTLSLTCTVSGGSISSGGYYWSWIRQHPGKGLEWIGYIYYSGSTYYNPSLKSRVTISVDTSKNQFSLKLSSVTAADTAVYYCAREGYCSGGSCYSYWYFDLWGRGTLVTVSS
VL: QSALTQPASVSGSPGQSITISCTGTSSDVGGYNYVSWYQQHPGKAPKLMIYEVSNRPSGVSNRFSGSKSGNTASLTISGLQAEDEADYYCSSYTSSSTLFVFGGGTQLIIL
notes: Tested as a Fab made in E. coli; The heavy chain variable region was cloned into Plasmid A (CH1 constant region, His6 and Flag tags); The lambda light chain variable region was cloned into Plasmid E (lambda CL); Only the variable domains are tied to this Fab by name
With B1 the “ECL signal at 3.3 nM Fab” value [1] was 621, the “ECL signal at 3.3 nM Fab” value [2] was 849 and the “ECL signal at 3.3 nM Fab” value [3] was 847. The “ECL signal at 3.3 nM Fab” value [4] was 1030, the “ECL signal at 3.3 nM Fab” value [5] was 695 and the “ECL signal at 52.5 nM Fab” value [6] was 897. The “ECL signal at 52.5 nM Fab” value [7] was 1290, the “ECL signal at 52.5 nM Fab” value [8] was 1110 and the “ECL signal at 52.5 nM Fab” value [9] was 1510. For the same binder, the “ECL signal at 52.5 nM Fab” value [10] was 1320, the “ECL signal at 210 nM Fab” value [11] was 1400 and the “ECL signal at 210 nM Fab” value [12] was 2060. The “ECL signal at 210 nM Fab” value [13] was 1620, the “ECL signal at 210 nM Fab” value [14] was 1980 and the “ECL signal at 210 nM Fab” value [15] was 2120. The “ECL signal at 13.1 nM Fab” value [16] was 708, the “ECL signal at 13.1 nM Fab” value [17] was 981 and the “ECL signal at 13.1 nM Fab” value [18] was 824. The “ECL signal at 13.1 nM Fab” value [19] was 930 and the “ECL signal at 13.1 nM Fab” value [20] was 776.

B2: Fab VH1-46_IGHD6-6*01_IGHJ1*01 S102A & L6_IGKJ1*01 (Fab, V domains shown)
VH: QVQLVQSGAEVKKPGASVKVSCKASGYTFTSYYMHWVRQAPGQGLEWMGIINPSGGSTSYAQKFQGRVTMTRDTSTSTVYMELSSLRSEDTAVYYCAREEYASSSAEYFQHWGQGTLVTVSS
VL: not shown
notes: Tested as a Fab expressed in E. coli (Plasmid A: CH1, His6 and Flag tags; Plasmid C: kappa CL)
B2 gave an ECL signal/noise ratio [21] of 0.5, an ECL signal/noise ratio [22] of 1.4 and an ECL signal/noise ratio [23] of 0.8. It also gave an ECL signal/noise ratio [24] of 1, an ECL signal/noise ratio [25] of 1.3 and an ECL signal/noise ratio [26] of 71.6. The ECL signal/noise ratio [27] was 0.9, the ECL signal/noise ratio [28] was 1.3 and the ECL signal/noise ratio [29] was 1.3. It also gave an ECL signal/noise ratio [30] of 0.5, an ECL signal/noise ratio [31] of 0.6 and an ECL signal/noise ratio [32] of 1. It also gave an ECL signal/noise ratio [33] of 0.2, an ECL signal/noise ratio [34] of 0.9 and an ECL signal/noise ratio [35] of 10. It also gave an ECL signal/noise ratio [36] of 0.8, an ECL signal/noise ratio [37] of 0.8 and an ECL signal/noise ratio [38] of 0.5.
